B1: MEL-1872 (antibody)
VH: KVQLRESGPSLVKPSQTLSLTCTASGFSLSDKAVGWVRQAPGQPLEWLGTIDTTGNAVYNPGLKSRLSITKDNSKSQVSLSLSSVTTEDSATYHCSTVHQKTRRSCPSDYSFICDCEGTGSHCCRASNCPYYCNYGRDRMCTGRSNIHEWHVDAWGQGLLVTVSS
VL: QAVLTQPSSVSGSLGQRVSTTCSGSSSNVGNGYVSWYQLIPGSAPRTLIYGDTSRASGVPDRFSGSRSGNTVTLTISSLQAEDEADYFCASAEDGSSNAVFGRGTTLTV
notes: also called H 1872; BrNAb MEL-1872
B2: MEL-2129 (antibody)
VH: KVQLRESGPSLVKPSQTLSLTCTASGFSLSDKAVGWVRQAPGKALEWLGSIDTGGNAGYNPGLKSRLSITKGNSKSQVSLSVSSVTTEDSATYYCSTVHQKTRRSCPVDYYYSCDCEGSGSHCCSASNCPYYCKYGRDRVCTDKHTYSYEWYVDAWGQGLLVTVSS
VL: B1 VL
notes: also called BrNAb MEL-2129
B3: MEL-1842 (antibody)
VH: KVQLQESGPSLVKPSQTLSLTCTASGFSLSDKAVGWVRQAPGQALEWLGSIDTGGNADYNPGLKSRLSITKDNAKSQVSLSVSSVTTEGSATYYCSTVHQKTLRSCPSDYPYICDCEDTGSHCCRATNCPYYCNHGRDRMCTGRTYTYEWHVEAWGQGLLVTVSS
VL: B1 VL
notes: also called H 1842; BrNAb MEL-1842

What was measured:
L179A = target: T1, L179A (HIV-1); test: capture ELISA on Env of lysed AD8 pseudovirus, % of WT
T1 construct: full-length Env of lysed pseudovirus; HXB-2 numbering

D185A = target: T2, D185A (HIV-1); test: as above
T2 construct: full-length Env of lysed pseudovirus; HXB-2 numbering

N262A = target: T3, N262A (HIV-1); test: as above
T3 construct: full-length Env of lysed pseudovirus; HXB-2 numbering

P313A = target: T4, P313A (HIV-1); test: as above
T4 construct: full-length Env of lysed pseudovirus; HXB-2 numbering

S365A = target: T5, S365A (HIV-1); test: as above
T5 construct: full-length Env of lysed pseudovirus; HXB-2 numbering

G472A = target: T6, G472A (HIV-1); test: as above
T6 construct: full-length Env of lysed pseudovirus; HXB-2 numbering

R476A = target: T7, R476A (HIV-1); test: as above
T7 construct: full-length Env of lysed pseudovirus; HXB-2 numbering

N197A = target: T8, N197A (HIV-1); test: as above
T8 construct: full-length Env of lysed pseudovirus; HXB-2 numbering

R419A = target: T9, R419A (HIV-1); test: as above
T9 construct: full-length Env of lysed pseudovirus; HXB-2 numbering

K282A = target: T10, K282A (HIV-1); test: as above
T10 construct: full-length Env of lysed pseudovirus; HXB-2 numbering

K121A = target: T11, K121A (HIV-1); test: as above
T11 construct: full-length Env of lysed pseudovirus; HXB-2 numbering

N283A = target: T12, N283A (HIV-1); test: as above
T12 construct: full-length Env of lysed pseudovirus; HXB-2 numbering

M373A = target: T13, M373A (HIV-1); test: as above
T13 construct: full-length Env of lysed pseudovirus; HXB-2 numbering

Q363A = target: T14, Q363A (HIV-1); test: as above
T14 construct: full-length Env of lysed pseudovirus; HXB-2 numbering

E87A = target: T15, E87A (HIV-1); test: as above
T15 construct: full-length Env of lysed pseudovirus; HXB-2 numbering

P369A = target: T16, P369A (HIV-1); test: as above
T16 construct: full-length Env of lysed pseudovirus; HXB-2 numbering

N276A = target: T17, N276A (HIV-1); test: as above
T17 construct: full-length Env of lysed pseudovirus; HXB-2 numbering

M475A = target: T18, M475A (HIV-1); test: as above
T18 construct: full-length Env of lysed pseudovirus; HXB-2 numbering

A329K = target: T19, A329K (HIV-1); test: as above
T19 construct: full-length Env of lysed pseudovirus; HXB-2 numbering

CenpB = target: T20, CenpB (human, UniProt P07199 1-599); test: single autoantigen ELISA (AESKULISA ANA-8Pro), FIG. 9A
T20 sequence (looked up): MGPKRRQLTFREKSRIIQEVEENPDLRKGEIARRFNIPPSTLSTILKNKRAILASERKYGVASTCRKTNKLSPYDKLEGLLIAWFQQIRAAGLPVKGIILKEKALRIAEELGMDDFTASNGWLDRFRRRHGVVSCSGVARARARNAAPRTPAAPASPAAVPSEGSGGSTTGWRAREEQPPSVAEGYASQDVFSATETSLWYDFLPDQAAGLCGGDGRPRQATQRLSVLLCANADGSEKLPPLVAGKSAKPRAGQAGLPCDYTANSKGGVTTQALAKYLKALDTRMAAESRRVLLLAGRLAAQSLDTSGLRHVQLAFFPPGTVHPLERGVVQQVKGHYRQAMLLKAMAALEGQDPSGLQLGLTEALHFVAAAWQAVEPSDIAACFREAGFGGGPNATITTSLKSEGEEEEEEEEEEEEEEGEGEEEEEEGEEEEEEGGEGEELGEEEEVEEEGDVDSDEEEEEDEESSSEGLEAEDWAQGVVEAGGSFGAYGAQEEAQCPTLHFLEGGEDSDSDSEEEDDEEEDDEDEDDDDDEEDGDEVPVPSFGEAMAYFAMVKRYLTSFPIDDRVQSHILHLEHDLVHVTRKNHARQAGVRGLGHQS
Description: (§1) Polyreactivity assay: Single autoantigen reactivity. […] ANA-8Pro (Aesku) for U1-ribonucleoprotein (RNP), SnRNP/Sm, Sm, SS-A, SS-B, Jo-1, Scl-70, and CenpB. The 96 wells were coated with these cellular and nuclear antigens for the qualitative detection of mAbs reactivity. The cut-off calibrator, negative control and positive control were provided by the manufacturer.

Jo-1 = target: T21, Jo-1 (human, UniProt P12081 1-509); test: as above
T21 sequence (looked up): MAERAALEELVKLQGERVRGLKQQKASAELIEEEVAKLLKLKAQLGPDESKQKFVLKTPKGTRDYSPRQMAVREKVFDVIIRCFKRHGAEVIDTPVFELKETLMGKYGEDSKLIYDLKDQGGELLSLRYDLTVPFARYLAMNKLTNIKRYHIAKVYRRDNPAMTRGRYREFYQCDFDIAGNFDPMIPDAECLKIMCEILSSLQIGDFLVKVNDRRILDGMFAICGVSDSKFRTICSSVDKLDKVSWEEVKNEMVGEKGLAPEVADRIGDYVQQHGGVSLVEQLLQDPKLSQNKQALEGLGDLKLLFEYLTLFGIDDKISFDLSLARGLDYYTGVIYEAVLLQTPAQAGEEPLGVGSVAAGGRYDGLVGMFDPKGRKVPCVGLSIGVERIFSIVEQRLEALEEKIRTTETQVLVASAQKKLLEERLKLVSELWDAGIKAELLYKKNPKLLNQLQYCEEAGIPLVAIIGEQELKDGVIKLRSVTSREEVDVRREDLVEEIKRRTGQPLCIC
Description: as §1

Binder	Env binding (%) at antibody EC50 (L179A) [%]	Env binding (%) at antibody EC50 (D185A) [%]	Env binding (%) at antibody EC50 (N262A) [%]	Env binding (%) at antibody EC50 (P313A) [%]	Env binding (%) at antibody EC50 (S365A) [%]	Env binding (%) at antibody EC50 (G472A) [%]	Env binding (%) at antibody EC50 (R476A) [%]	Env binding (%) at antibody EC50 (N197A) [%]	Env binding (%) at antibody EC50 (R419A) [%]	Env binding (%) at antibody EC50 (K282A) [%]	Env binding (%) at antibody EC50 (K121A) [%]	Env binding (%) at antibody EC50 (N283A) [%]	Env binding (%) at antibody EC50 (M373A) [%]	Env binding (%) at antibody EC50 (Q363A) [%]	Env binding (%) at antibody EC50 (E87A) [%]	Env binding (%) at antibody EC50 (P369A) [%]	Env binding (%) at antibody EC50 (N276A) [%]	Env binding (%) at antibody EC50 (M475A) [%]	Env binding (%) at antibody EC50 (A329K) [%]	binding result (CenpB)	further results
B1	110	99	27	100	70	29	57	92	108	63	94	76	102	93	87	88	100	82	38	–	–
B2	101	93	18	84	126	15	64	82	93	85	80	64	92	79	81	81	89	63	46	no binding (tested: 100 µg/ml)	binding result (Jo-1): no binding (tested: 100 µg/ml)
B3	110	100	44	100	37	39	81	93	110	84	107	82	102	97	108	94	100	99	101	no binding (tested: 100 µg/ml)	binding result (Jo-1): no binding (tested: 100 µg/ml)
